Reference: the DeepSol protein solubility set

Assay: soluble on expression in E. coli; label from the status in PepcDB or PDB records

Sequence	soluble on expression in E. coli
MIKVRVPDFSDKKFSDRWRYCVGTGRLGLALQKEYIETLKYVKENIDFKYIRGHGLLCDDVGIYREDVVGDEVKPFYNFTYIDRIFDSFLEIGIRPFVEIGFMPKKLASGTQTVFYWEGNVTPPKDYEKWSDLVKAVLHHFISRYGIEEVLKWPFEIWNEPNLKEFWKDADEKEYFKLYKVTAKAIKEVNENLKVGGPAICGGADYWIEDFLNFCYEENVPVDFVSRHAYTSKQGEYTPHLIYQEIMPSEYMLNEFKTVREIIKNSHFPNLPFHITEYNTSYSPQNPVHDTPFNAAYIARILSEGGDYVDSFSYWTFSDVFEERDVPRSQFHGGFGLVALNMIPKPTFYTFKFFNAMGEEMLYRDEHMLVTRRDDGSVALIAWNEVMDKTENPDEDYEVEIPVRFRDVFIKRQLIDEEHGNPWGTWIHMGRPRYPSKEQVNTLREVAKPEIMTSQPVANDGYLNLKFKLGKNAVVLYELTERIDESSTYIGLDDSKINGY	soluble
MVRIYTLTLAPSLDSATITPQIYPEGKLRCSAPVFEPGGGGINVARAIAHLGGTATAIFPAGGATGEHLVALLADENVPVSTVDAKDWTRQNLHVHVESSGEQYRFVMPGATLDDDEFRQLEEQVLEIESGAILVISGSLPPGVKVEKLTQLISAAQKQGIRCIIDSSGDALTAALALGDIELVKPNLKELSALVNRDLTQPDDVRKAAQELVQSGKARRVVVSLGPQGALGIDSENCIQVVPPPVKSQSTVGAGDSMVGAMTLKLAQDASLEEMVRFGVAAGSAATLNQGTRLCSRDDTQKIYAYLSAQ	not soluble
MGHHHHHHSHMAAPGLRLGAGRLFEMPAVLERLSRYNSTSQAFAEVLRLPKQQLRKLLYPLQEVERFLAPYGRQDLHLRIFDPSPEDIARADNIFTATERNRIDYVSSAVRIDHAPDLPRPELEENIFISG	not soluble
MNIAKIVREAREQSRLTTLDFATGIFDEFIQLHGDRSFRDDGAVVGGIGWLGDQAVTVVGIQKGKSLQDNLKRNFGQPHPEGYRKALRLMKQAEKFGRPVVTFINTAGAYPGVGAEERGQGEAIARNLMEMSDLKVPIIAIIIGEGGSGGALALAVADRVWMLENSIYAILSPEGFASILWKDGTRAMEAAELMKITSHELLEMDVVDKVISEIGLSSKELIKSVKKELQTELARLSQKPLEELLEERYQRFRKY	not soluble
MSLYPKAYIDYLVEFHATRDYFECHEILEEYWKEDPPKKRKRYWVGFIQLAVALYHHRRQNTAGAKRLMANSIRILQAEHRAVEDLGLDHGRLLELMQSVYEQIETVSAYKSIILPIKDEKLEEACRIECRKKKYTWGQPSALSNIFLIDKHRLRDRTDVIREREKEIERRKKSRDEGHHHHHH	soluble
MSFASGCTPVSFDKLFEVSSGDKVSRENWGMIARPEPQHDSLKRRNTTSSIAKKKAKMTRGDEQITDETARKAATQLLDQIQDTPGRISLNFETPEAASVCPIPTSLNQIVNTKWTVNQLQEGQLTMLLAQDANKFKSLGVKNIKKGSVETQILPRQMDVKEIVEKLKKQDNDSDQFVGYAAAVANVLRRCDAETAQKITQAITATIEKEAPSIVNC	not soluble
MQWQTKLPLIAILRGITPDEALAHVGAVIDAGFDAVEIPLNSPQWEQSIPAIVDAYGDKALIGAGTVLKPEQVDALARMGCQLIVTPNIHSEVIRRAVGYGMTVCPGCATATEAFTALEAGAQALKIFPSSAFGPQYIKALKAVLPSDIAVFAVGGVTPENLAQWIDAGCAGAGLGSDLYRAGQSVERTAQQAAAFVKAYREAVQLHHHHHH	soluble
MGSDKIHHHHHHMQLITSLDIRNSEYLSKDRLISYHHQLRLIFSLGNQVKNVLEIGIFNSLLTDILKNNGYNVTTADVDPNLKPEMILDLTTDFSLPKDKFDAIVLFQVLEHFPYEQSEEALKKLAEATKKFLVISIPYCTQYLSFQIKSSFSGRPRYLLLSVPKFWSTKPVCDEHYWEMGLKGYPKKRILNSVANAGLTVKQEFIDPSYPYHYFLVLEKTNNI	not soluble
MILVNRETRVLVQGITGREGQFHTKQMLSYGTKIVAGVTPGKGGMEVLGVPVYDTVKEAVAHHEVDASIIFVPAPAAADAALEAAHAGIPLIVLITEGIPTLDMVRAVEEIKALGSRLIGGNCPGIISAEETKIGIMPGHVFKRGRVGIISRSGTLTYEAAAALSQAGLGTTTTVGIGGDPVIGTTFKDLLPLFNEDPETEAVVLIGEIGGFDEEEAAAWVKDHMKKPVVGFIGGRSAPKGKRMGHAGAIIMGNVGTPESKLRAFAEAGIPVADTIDEIVELVKKALG	soluble
MSQLVECVPNFSEGNNQEVIDAISQAISQTPGCVLLDVDAGPSTNRTVYTFVGQPECVVEGALSAARTASQLIDMRKHKGEHPRMGALDVCPFIPVRGVSMDECVLCAKAFGQRLAEELNVPVYLYGEAAQMPSRQTLPAIRAGEYEALPEKLKQAEWVPDFGPSSFVPSWGATVTGARKFLIAFNINLLSTKEQAHRIALNLREQGRGKDQPGRLKKVQGIGWYLEEKNLAQVSTNLLDFEVTALHTVYEEARREAQELNLPVVGSQLVGLVPLKALLDAAAFYCDKEKLFVLEEEHRIRLVVNRLGLDSLAPFDPKERIIEYLVPDSGPEQSLLDASLRAFVREVGARSAAPGGGSVAAAVAALGAALASMVGQMTYGRRQFDHLDSTMRRLIPPFHAASAQLTSLVDADARAFAACLGAIKLPKNTPEERDRRTCALQEGLRQAVAVPLKLAETVSQLWPALQELAQCGNLSCLSDLQVAAKALETGVFGAYFNVLINLKDMTDDVFKEKTRHRISSLLQEAKTQAALVLGSLEARKE	soluble
MVASCKSTSQPVSLSQKDSSPDFNRCRNDSEDTVNLTGSGDIYIDKESSQKALDDLLRKVTLDGGISLKDAKSSEILAAYERKIQMLQLELQMKNVPKPVVEIETTSQKIRDLAQECEALRDSNKQLTDHMTRGNLEINQLKVQLEEVKQKCDSIETSLGMCITEKAGLKTQLTESLQNAERNVHTAQNEISKLNTELAQSVTRIELFLAENRELKQEFEEKVVECEVLKEHIRQIDLELKNKQSDMERALLQISAAEQKAAKKELELIEAEKHLKLYESRLSDRERDLNAKNLEIDRLKLDLDAARRNLQKLEQMREAMLSLASSSSN	not soluble
MMEMRVGIVGGGLAGLTAAIALAEKGFDVSIIGPRSTDSNSYLAQAGIALPLLEGDSIRIHVLDTIKAGKYINDEEIVWNVISKSSEAHDFLTSHGVTFTGNELEGGHSYPRIFTIKSETGKHIIPILEKHARELDVNFIRGFVEEIGINNGKLAGVFLQGELLKFDAVVIAAGGFSGLYRFTAGVKNNIGLLIGDVALKGVPLRDMEFVQFHPTGFIGKRTYLITEAVRGAGAKLVTGDGERFVNELETRDIVARAIYMKMLEGKGVFLDARGIENFKDRFPYIYSVLRGEGINPEKDLIPITPVAHYTIGGISVDAFYRTRIKGLYAIGESACNGFHGANRLASNSLLECVVSGLEVARTISREKPKREVNDAPYSFNELGDVDSIREVLWNHAGIVRDEWSLREGLRKLKEIEVDERLKLVAKAVIISALKREESRGAHYRKDYPFMRKEFEHSSFFYPNV	soluble
EEHLSVMYERLRQELPKLFLQSHDYSLYSLDVEFINEILNIRTKGRTWYILSLTLCRFLAWNYFAHLRLEVLQLTRHPENWTLQARWRLVGLPVHLLFLRFYKRDKDEHYRTYDAYSTFYLNSSGLI	soluble
QVQLQQSGAELVKPGASVRMSCKASGYTFTNYNMYWVKQSPGQGLEWIGIFYPGNGDTSYNQKFKDKATLTADKSSNTAYMQLSSLTSEDSAVYYCARSGGSYRYDGGFDYWGQGTTVTVSS	soluble
MSINVDEFQCYRIPNVYVQWYDLEPTIHWLTGGNSNSRQIQEMDQKKKKIRSTSAYALFFRERQSLEKRAAPYATFGQISQKIARQWDSLTEEEKKAYKQRCEKNRKTSIANAVEEKARQLLTASKFQ	not soluble
NKNFWLGVRGNFTYATGKYEYVEEPYRPYPWLSHIGKRIEQSYGLVAERLFIDEEDIANSPVQTYGEYMPGDIKYKDINNDGIINDEDIVPIGFAKSPEIVYGFGVSMGYKNFDISCFFQGAARSSFFINSKATNPFMQMDLGGNNLNGMMQAYADDYWSESNRNIYATFPRLSTTDIANNNRNSTWWLRDGSYLRLKSVEIGYTLPKRLTSHLGMSNLRIYASGLNLFAWNRFKLWDVEQGNDGMQYPIQAVYNFGINLSF	not soluble
MSNDGDLNIDNLITRLLEVRGCRPGKPVTMSEAEIRALCHKSREIFLSQPILLELEAPLKICGDIHGQYNDLLRLFEYGGFPPEANYLFLGDYVDRGKQSLETICLLLAYKVKYPENFFLLRGNHECASINRIYGFYDECKRRFSIKLWKTFTDCFNCLPIAALIDEKIFCCHGGLSPDLQNMEQIRRVMRPTDVPDTGLLCDLLWSDPDKDVTGWGENDRGVSFTFGPDVVAKFLNRHDLDLICRAHQVVEDGYEFFAKRQLVTLFSAPNYCGEFDNAGGMMSVDETLMCSFQILKPSEKKAKYQYQGMNSGRPAVGGGRPGTTAGKK	not soluble
MTASDYEWQPDILGKDFQQLVIPLGADPISEGGEDDIFATLVRYAPADQPTPTSRPAVLFVHGMTDYFFQRHVAQWFHQHGFSVYALDLRKCGRSHRNNQSWHYISDISRYFEELDRAKSIIEELHPTIFPIGHSTGGLILAHWLDGLRQCETLHPTIPGAILNSPWLDMMTPATVTRALRPILTRAARRFPHASFGRSKEGTYGRSLHASRSGEWDYDISFKPLTGHLRKLGWLHAIDTAQSLVHNDAVDCGIPLLMLCSDHSSLRGKFSPRAQVTDTVLDVEQMKRWAPHLSEYVSVCTIRGAVHDVYLSQKPARLQALETSVRWMNRILSEHTI	not soluble
MGSDKIHHHHHHMEKVKAILFDKDGTLMDFHSIWIKVAEELVAEYIKLYQLPQSMQPTLLKEIGVDGVFVHPRSAIAAGTSLDVAKGLCKYITSSKEEEMHEWVSEKLFALMYEHRSYMKMTADLPRILQSLKDRGFILGVVTADDFAPTELFLKQYQLETFFDYVVASDTFAAQKPDKRIIESFCERFHLKACEVAVVGDTPTDLYLAKNGDCYAIGVLSGTGNRQTLEPLADLVVQSVGDFISHSGEFVWEKGKSNV	not soluble
MSLTGKPIVLGLTISTTAAAGVADHADHMNGSLLAQEEINANGGILGRPLELRPVDVDLLSAESCQASIRKLVDLKVHAISSPFLFVPIPAMDASANYKCPYVNGNTQRAATDMVAKHPEKYNHIFQMDPSEVFYGETFPVFLESLADSGNWKPKNNKVHIVQEQIAYCQTISRACQEALKKSRFELAKVTDIQYPVQDWGSVIRDIKKTGAGTVMMDHWVAAEYAAFCKQFRANPLKGTLIYLQYGPSQPEFLELTGKAAEGFVWSTMLGVYADKKGQAFRDKYQKRFPGKTMGLCYTGGGYDIAYMMAQAWNAVGNPDDFKAVNDYIRKTAFRGVCGWSYMNNPRQEARHFPLGTDSIESGMSQLYFQIQDGKNKIIYPPQLKEGHHHHHH	soluble
MAHHHHHHMKRGREEDKEAEVGGSRVGPSDRRSAATSTEHKPRRLLKGADVGLPLHESVIEETCEVEETHAVLVRFPCFDFFRHVRVCERTRDLQPATSDDAAKASASLASALSDTTFRSGAPPVTSTHDTADVAFAPEAAVFIPGTLETDAPRLLLNGGTPHEMLFEGQWTEVTGEGVSVTNRAVVHLSAKTAGIAVSPAALPLNTSPIMSDAAKSPELARAAAESFPASASQATATPALPIASLLTHTLAGVTADEERRQRAEQQKGWTYDRIDVPSAVLVMHRVR	not soluble
MGHHHHHHSHMKRSLSENSARSTADWAWEAVNPELAPVMKTVDTGQIPHSVSRPLRSQDSVFNSIQSNTGRSQGGWSYRDGNKNTSLKTWNKNDFKPQCKRTNLVANDGKNSCPVSSGAQQQKQLRIPEPPNLSRNKETELLRQTHSSKISGCTMRGLDKNSALQTLKPNFQQNQYKKQMLDDIPEDNTLKETSLYQLQFKEKASSLRIISAVIESMKYWREHAQKTVLLFEVLAVLDSAVTPGPYYSKTFLMRDGKNTLPCVFYEIDRELPRLIRGRVHRCVGNYDQKKNIFQCVSVRPASVSEQKTFQAFVKIADVEMQYYINVMNET	not soluble
